In US20230074436A1 (DENALI THERAPEUTICS, published 2023) one finds Kd data, which are given here for 17 molecules.

To fix the notation:
B1: HC2_L3_1 (antibody, V domains shown)
VH: EVQLVESGGGLVQPGGSLRLSCAASGFTFSNAAMYWVRQAPGKGLELVSRIRTKPNNYATYHADSVKGRFTISRDNSKNTLYLQMNSLRAEDTAVYYCTADMATGDYWGQGTLVTVSS
VL: DIQMTQSPSSLSASVGDRVTITCKASQNINKNLDWYQQKPGKAPKPLIYSTNNLQTGVPSRFSGSGSGTDFTLTISSLQPEDFATYYCYQDKNGWTFGQGTKVEIK
B2: HC2_L3_7 (antibody, V domains shown)
VH: B1 VH
VL: B1 VL with D91Y
B3: HC2_L3_5 (antibody, V domains shown)
VH: B1 VH
VL: B1 VL with D91Y, G94A
B4: HC2_L3_10 (antibody, V domains shown)
VH: B1 VH
VL: B1 VL with D91Y, N93L, G94A
B5: HC2_L3_8 (antibody, V domains shown)
VH: B1 VH
VL: B1 VL with D91F, N93K, G94A
B6: HC2_L3_3 (antibody, V domains shown)
VH: B1 VH
VL: B1 VL with N93K
B7: HC2_L3_6 (antibody, V domains shown)
VH: B1 VH
VL: B1 VL with D91Y, N93K, G94A
B8: HC2_L3_9 (antibody, V domains shown)
VH: B1 VH
VL: B1 VL with D91Y, N93Y, G94A
B9: HC2_L3_4 (antibody, V domains shown)
VH: B1 VH
VL: B1 VL with N93S
B10: HC2_L3_2 (antibody, V domains shown)
VH: B1 VH
VL: B1 VL with N93R
B11: HC2_L3_11 (antibody, V domains shown)
VH: B1 VH
VL: B1 VL with D91Y, N93F, G94A
B12: HC6_LC_k3_2_v1 (antibody, V domains shown)
VH: B1 VH with N76D
VL: EIVMTQSPATLSLSPGERATLSCKASQNINKNLDWYQQKPGQAPRPLIYSTNNLKTGIPARFSGSGSGTDFTLTISSLQPEDFAVYYCYQYKSAWTFGQGTKVEIK
B13: 20H4_HC5_LC_k3_1 (antibody, V domains shown)
VH: B1 VH with V48L, S49A, N76D, L81V
VL: B12 VL with K31N
B14: HC5_LC_k3_2_v1 (antibody, V domains shown)
VH: B1 VH with V48L, S49A, N76D, L81V
VL: B12 VL
B15: HC5_LC_k3_3 (antibody, V domains shown)
VH: B1 VH with V48L, S49A, N76D, L81V
VL: B12 VL with K31Q
B16: 20H4_HC5_LC_k3_2_v2 (antibody, V domains shown)
VH: B1 VH with V48L, S49A, N76D, L81V
VL: B12 VL with K55Q
B17: HC5_LC_k3_4 (antibody, V domains shown)
VH: B1 VH with V48L, S49A, N76D, L81V
VL: B12 VL with K31E

Positions count from the first letter of the chain named.

The first assay has as its target T1, human alpha-synuclein monomer (human, UniProt P37840 1-140). Nature of the assay: SPR (Biacore 8K), IgG captured on anti-human Fc, aSyn monomer injected. On the technique in general: In SPR one partner is held on a chip, and binding of the other changes the refractive index at the surface.
Method: (§1) Serial 3-fold dilutions of aSyn were injected at a flow rate of 30 μL/min. Each sample was analyzed using a 3-minute association and a 10-minute dissociation. After each injection, the chip was regenerated using 3 M MgCl₂. Binding response was corrected by subtracting the RU from a flow cell capturing an irrelevant IgG at similar density. A 1:1 Languir model of simultaneous fitting of kₒₙ and koff was used for kinetics analysis.
The term Kd denotes the equilibrium constant for the complex coming apart. Low values mean higher affinity, high ones lower affinity. With B1, binding was put at a Kd of 4.2 nM.
B2: the dissociation constant (Kd) was found to be 4.59 nM.
Same read-out and setting: next, B3: 3.24 nM; B4: 2.93 nM; B5: 3.01 nM.
As for B6, the affinity, expressed as Kd, was 5.28 nM.
Molecule B7 returned a Kd of 3.28 nM.
The same measure, in the same setting: next, B8: 2.98 nM; B9: 2.84 nM; B10: 4.52 nM.
Consider B11, for which binding was put at a Kd of 3.4 nM.

Another assay concerns the target T1, human alpha-synuclein monomer. Described as above. This is another data set of the same source.
Method: as §1
With B12, binding was characterised by a dissociation constant (Kd) of 0.22 nM.
Turning to B13, binding was put at a Kd of 0.13 nM.
The same measure, in the same setting: to B14 belongs 0.17 nM.
The molecule B15 registered a Kd of 0.17 nM.
B16: the dissociation constant Kd was determined as 1.3 nM.
On the same count and under the same terms, next, B17: 0.15 nM.
